According to the Immune Epitope Database (IEDB):

Assays:
[1] = target: HLA-B*46:01; assay: IEDB peptide-MHC binding, purified MHC/competitive/fluorescence; filed as Kd, often an IC50 or EC50 that approximates it; ≥ and ≤ were set here for values at or beyond the usual limits of such assays
[2] = target: HLA-B*45:01; assay: IEDB peptide-MHC binding, purified MHC/competitive/radioactivity; filed as Kd, often an IC50 or EC50 that approximates it; ≥ and ≤ were set here for values at or beyond the usual limits of such assays
[3] = target: HLA-B*40:02; assay: as above
[4] = target: HLA-B*18:01; assay: as above
[5] = target: HLA-B*44:03; assay: as above
[6] = target: HLA-B*44:02; assay: as above
[7] = target: HLA-B*40:01; assay: as above
[8] = target: HLA-A*11:01; assay: IEDB peptide-MHC binding, purified MHC/competitive/fluorescence; ≥ and ≤ were set here for values at or beyond the usual limits of such assays
[9] = target: HLA-B*57:01; assay: IEDB peptide-MHC binding, purified MHC/competitive/radioactivity; filed as Kd, often an IC50 or EC50 that approximates it; ≥ and ≤ were set here for values at or beyond the usual limits of such assays
[10] = target: HLA-B*07:02; assay: IEDB peptide-MHC binding, purified MHC/direct/fluorescence; filed as Kd, often an IC50 or EC50 that approximates it; ≥ and ≤ were set here for values at or beyond the usual limits of such assays
[11] = target: HLA-B*46:01; assay: as above
[12] = target: HLA-A*02:01; assay: as above
[13] = target: HLA-B*18:01; assay: as above; conditions: source organism: West Nile virus
[14] = target: HLA-B*48:01; assay: as above
[15] = target: HLA-B*58:01; assay: as above
[16] = target: HLA-A*69:01; assay: as above
[17] = target: HLA-B*44:02; assay: as above
[18] = target: HLA-B*40:01; assay: as above; conditions: source organism: West Nile virus
[19] = target: HLA-B*15:01; assay: as above
[20] = target: HLA-B*57:01; assay: as above
[21] = target: HLA-B*27:05; assay: as above
[22] = target: HLA-A*03:01; assay: as above
[23] = target: HLA-A*02:01; assay: IEDB peptide-MHC binding, purified MHC/competitive/fluorescence; ≥ and ≤ were set here for values at or beyond the usual limits of such assays; conditions: source organism: Zaire ebolavirus
[24] = target: HLA-A*24:02; assay: as above
[25] = target: HLA-B*53:01; assay: IEDB peptide-MHC binding, purified MHC/competitive/radioactivity; filed as Kd, often an IC50 or EC50 that approximates it; ≥ and ≤ were set here for values at or beyond the usual limits of such assays; conditions: source organism: Dengue virus 4 Philippines/H241/1956
[26] = target: HLA-A*31:01; assay: IEDB peptide-MHC binding, purified MHC/direct/fluorescence; filed as Kd, often an IC50 or EC50 that approximates it; ≥ and ≤ were set here for values at or beyond the usual limits of such assays; conditions: source organism: Mammarenavirus brazilense
[27] = target: HLA-B*08:01; assay: as above; conditions: source organism: Mammarenavirus brazilense
[28] = target: HLA-A*11:01; assay: as above; conditions: source organism: Mammarenavirus brazilense
[29] = target: HLA-A*01:01; assay: as above; conditions: source organism: Mammarenavirus brazilense
[30] = target: HLA-A*01:01; assay: IEDB peptide-MHC binding, purified MHC/competitive/radioactivity; filed as Kd, often an IC50 or EC50 that approximates it; ≥ and ≤ were set here for values at or beyond the usual limits of such assays
[31] = target: HLA-A*26:01; assay: as above; conditions: source organism: Dengue virus 2 Jamaica/1409/1983
[32] = source organism: SARS coronavirus Tor2
[33] = source organism: Dengue virus 4 Philippines/H241/1956
[34] = source organism: Lymphocytic choriomeningitis virus (strain Armstrong)
[35] = source organism: Mammarenavirus juninense
[36] = source organism: West Nile virus
[37] = source organism: Zaire ebolavirus
[38] = source organism: Mammarenavirus machupoense
[39] = source organism: Mammarenavirus brazilense
[40] = source organism: Dengue virus 3 Martinique/1243/1999
[41] = source organism: Dengue virus 2 Jamaica/1409/1983
[42] = source organism: Vaccinia virus

Sequence	Kd [2, 32] [µM]	Kd [3, 32] [µM]	Kd [4, 32] [µM]	Kd [5, 32] [µM]	Kd [6, 32] [µM]	Kd [7, 32] [µM]	also measured
ISRDIMDAY	–	–	–	–	–	–	Kd ([1]; source organism: Bacillus cereus G9241): 0.0416 µM
KELSPRWYF	6.01	0.0073	1.88	0.0528	0.0634	0.889	–
KDYMSLSEQL	–	5.78	≥ 70.5	≥ 29.6	≥ 25.6	6.19	–
SQNSTEGRR	–	–	–	–	–	–	IC50 ([8]; source organism: Sudan ebolavirus): 22.4 µM
RFSTSLLFLN	–	–	–	–	–	–	Kd [9, 33]: 1.09 µM
NDLQFGFGW	–	–	–	–	–	–	Kd [2, 34]: ≥ 77.7 µM; Kd [3, 34]: 10.3 µM; Kd [4, 34]: 1.8 µM; Kd [5, 34]: 0.038 µM; Kd [6, 34]: 0.295 µM; Kd [7, 34]: ≥ 37.8 µM
SDFLISEML	–	–	–	–	–	–	Kd [2, 35]: ≥ 27.6 µM; Kd [3, 35]: 0.0171 µM; Kd [4, 35]: ≥ 56 µM; Kd [5, 35]: ≥ 51.5 µM; Kd [6, 35]: 2.4 µM; Kd [7, 35]: 11.5 µM
VETFYPKLQA	2.6	12.6	≥ 59.6	≥ 41.4	≥ 70.2	≥ 69.6	–
TRAVGKPLL	–	–	–	–	–	–	Kd [10, 36]: ≥ 20 µM; Kd [11, 36]: ≥ 20 µM; Kd [12, 36]: ≥ 20 µM; Kd [13]: ≥ 20 µM; Kd [14, 36]: ≥ 20 µM; Kd [15, 36]: ≥ 20 µM; Kd [16, 36]: ≥ 20 µM; Kd [17, 36]: ≥ 20 µM; Kd [18]: ≥ 20 µM; Kd [19, 36]: ≥ 20 µM; Kd [20, 36]: ≥ 20 µM; Kd [21, 36]: ≥ 20 µM; Kd [22, 36]: ≥ 20 µM
NVPGPHRTI	–	–	–	–	–	–	IC50 [23]: 16 µM; IC50 [8, 37]: 54.4 µM; IC50 [24, 37]: 2.2 µM
IAFCNWAFV	–	–	–	–	–	–	Kd ([1]; source organism: Vibrio cholerae 2740-80): 4.36 µM; Kd ([16]; source organism: Vibrio cholerae): 0.06 µM
HEDLMAAYV	1.69	1.33	3.91	5.06	7.08	1.2	–
EEHFVETVSL	0.116	0.0843	1.04	0.143	0.44	0.0092	–
EAVNDSRFW	–	–	–	–	–	–	Kd [9, 33]: 1.26 µM; Kd [25]: 0.0132 µM
SELVIGAVI	0.155	0.0559	2.59	0.426	0.605	0.0889	–
NDNFLMSNV	–	–	–	–	–	–	Kd [2, 38]: ≥ 10 µM; Kd [3, 38]: 2.99 µM; Kd [4, 38]: ≥ 43.6 µM; Kd [5, 38]: 19.6 µM; Kd [6, 38]: 13.1 µM; Kd [7, 38]: ≥ 27.6 µM
EEAIRHVRAW	4.77	≥ 70.8	≥ 43.1	0.0142	0.0073	≥ 69.6	–
NELSLALGL	5.85	0.154	0.0909	0.0285	0.409	0.277	–
EETFKLSYGI	2.54	0.194	19.7	0.13	0.076	3.58	–

Sequence	Kd [2, 32] [µM]	Kd [3, 32] [µM]	Kd [4, 32] [µM]	Kd [5, 32] [µM]	Kd [6, 32] [µM]	Kd [7, 32] [µM]	also measured
WEPEFYEAMY	≥ 52.4	7.18	1.65	0.377	2.22	5.41	–
EFKSRFFVM	–	–	–	–	–	–	Kd [26]: ≥ 20 µM; Kd [10, 39]: ≥ 20 µM; Kd [11, 39]: ≥ 20 µM; Kd [27]: 0.364 µM; Kd [12, 39]: ≥ 20 µM; Kd [28]: ≥ 20 µM; Kd [14, 39]: ≥ 20 µM; Kd [15, 39]: ≥ 20 µM; Kd [16, 39]: ≥ 20 µM; Kd [17, 39]: ≥ 20 µM; Kd [19, 39]: ≥ 20 µM; Kd [20, 39]: ≥ 20 µM; Kd [21, 39]: ≥ 20 µM; Kd [29]: ≥ 20 µM; Kd [22, 39]: ≥ 20 µM
SSSMRKTDWL	–	–	–	–	–	–	Kd [9, 40]: 3.14 µM; Kd [30, 40]: ≥ 49.7 µM
VTLNASQYA	–	–	–	–	–	–	IC50 ([8]; source organism: Vaccinia virus Copenhagen): ≥ 227 µM
TFSILNRKA	–	–	–	–	–	–	IC50 [8, 37]: 66.5 µM
TEGLCVDIPG	0.0748	0.0918	≥ 70.5	≥ 34.9	≥ 43.3	≥ 69.6	–
PASIAARGYI	–	–	–	–	–	–	Kd [9, 41]: 0.365 µM
HECFVKRVDW	≥ 33.8	5.78	6.62	0.187	0.302	≥ 69.6	–
AEIVDTVSAL	0.287	2.57	≥ 23.1	0.105	0.0864	0.00114	–
KDMPGGYCL	–	–	–	–	–	–	Kd [2, 38]: 18.2 µM; Kd [3, 38]: 0.235 µM; Kd [4, 38]: ≥ 38.9 µM; Kd [5, 38]: ≥ 78.1 µM; Kd [6, 38]: ≥ 42.5 µM; Kd [7, 38]: 17.7 µM
ADSDDILTL	–	–	–	–	–	–	Kd [2, 34]: ≥ 77.7 µM; Kd [3, 34]: ≥ 22.2 µM; Kd [4, 34]: ≥ 77.5 µM; Kd [5, 34]: 6.06 µM; Kd [6, 34]: ≥ 20.8 µM; Kd [7, 34]: ≥ 26.9 µM
KETLYRIDG	≥ 24	≥ 45.6	≥ 77.5	≥ 30.6	≥ 57.7	≥ 46	–
ETSWHYDQDH	–	–	–	–	–	–	Kd [9, 41]: 2.31 µM; Kd [31]: ≥ 40.9 µM; Kd [30, 41]: ≥ 70.4 µM
GGKVFAPKQ	–	–	–	–	–	–	IC50 [8, 42]: ≥ 244 µM; IC50 [24, 42]: ≥ 2250 µM
IDYVPLKSAT	2.05	≥ 50.6	≥ 70.5	≥ 70.1	≥ 40	≥ 69.6	–
STSQETWNRQ	–	–	–	–	–	–	Kd ([9]; source organism: Dengue virus 1 Brazil/97-11/1997): 0.943 µM
RTSKKRSWPL	–	–	–	–	–	–	Kd [9, 41]: 0.69 µM
LDGQQFYWP	–	–	–	–	–	–	IC50 [8, 37]: ≥ 150 µM; IC50 [24, 37]: ≥ 210 µM
